Consider five molecules from patent US20220251236A1 (Boehringer Ingelheim, published 2022).

For one test, the target named is T1, EGF2+3.
T1 construct: also called Hu DLL3 EGF2+3 on HEK293 cells
T1 membrane-anchored DLL3 subdomain construct: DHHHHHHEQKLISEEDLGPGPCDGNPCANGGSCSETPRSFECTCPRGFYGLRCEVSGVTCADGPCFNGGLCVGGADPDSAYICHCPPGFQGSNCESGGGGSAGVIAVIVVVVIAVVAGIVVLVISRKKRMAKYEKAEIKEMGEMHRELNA
Nature of the test: flow cytometry on HEK293 cells expressing the DLL3 subdomain construct, PE anti-human secondary, control: secondary antibody only. The method in brief:
(§1)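 Binders tested on HEK293 cells displaying the DLL3 subdomain construct; bound molecules detected by flow cytometry using PE-conjugated anti-human secondary antibody. Negative control: cells with secondary antibody only.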

A further test deals with T2, EGF5+6.
T2 construct: also called Hu DLL3 EGF5+6 on HEK293 cells
T2 membrane-anchored DLL3 subdomain construct: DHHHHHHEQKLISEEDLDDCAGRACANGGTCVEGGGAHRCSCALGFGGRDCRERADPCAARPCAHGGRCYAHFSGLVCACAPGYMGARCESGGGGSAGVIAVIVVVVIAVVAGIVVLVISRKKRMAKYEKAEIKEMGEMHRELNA
The description is as above. The method in brief:
as §1

For another test, the target named is T3, EGF3+4.
T3 construct: also called Hu DLL3 EGF3+4 on HEK293 cells
T3 membrane-anchored DLL3 subdomain construct: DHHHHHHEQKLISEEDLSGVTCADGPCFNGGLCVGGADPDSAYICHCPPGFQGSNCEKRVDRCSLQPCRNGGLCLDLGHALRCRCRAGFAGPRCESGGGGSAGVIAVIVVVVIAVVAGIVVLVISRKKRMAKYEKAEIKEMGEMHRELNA
The description is as above. The method in brief: as §1

Another test concerns the target T4, EGF4+5.
T4 construct: also called Hu DLL3 EGF4+5 on HEK293 cells
T4 membrane-anchored DLL3 subdomain construct: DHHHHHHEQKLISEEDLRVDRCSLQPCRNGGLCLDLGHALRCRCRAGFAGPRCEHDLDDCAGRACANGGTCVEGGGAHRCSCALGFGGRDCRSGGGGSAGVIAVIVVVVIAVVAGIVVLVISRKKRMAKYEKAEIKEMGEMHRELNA
Described as above. An outline of the steps: as §1

For test [1], the target named is T5, EGF6+MEMBRANE PROXIMAL PEPTIDE.
T5 construct: also called Hu DLL3 EGF6+membrane proximal peptide on HEK293 cells
T5 membrane-anchored DLL3 subdomain construct: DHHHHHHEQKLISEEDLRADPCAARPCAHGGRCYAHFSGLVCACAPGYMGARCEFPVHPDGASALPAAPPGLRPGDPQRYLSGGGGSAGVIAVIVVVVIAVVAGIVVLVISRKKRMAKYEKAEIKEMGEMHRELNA
The test is described as above. An outline of the steps: as §1

Test [2] concerns the target T6, trypsin inhibitor from glycine max soybean (Glycine max (soybean)).
T6 construct: also called Tryp
Nature of the test: SPR (Biacore T200), trypsin inhibitor on CM5 chip, sample at 1 µM. From the text:
To prepare the surface for the non-specific binding experiment, chicken egg white lysozyme and trypsin inhibitor from glycine max soybean were coupled manually to a series S CM5 chip with the surface density of 3000-5000 RU using the amine coupling kit according to the manufacture instructions.
Background: SPR reads the build-up and loss of mass on a sensor chip optically.

A further test concerns the target T7, EGF1+2.
T7 construct: also called Hu DLL3 EGF1+2 on HEK293 cells
T7 membrane-anchored DLL3 subdomain construct: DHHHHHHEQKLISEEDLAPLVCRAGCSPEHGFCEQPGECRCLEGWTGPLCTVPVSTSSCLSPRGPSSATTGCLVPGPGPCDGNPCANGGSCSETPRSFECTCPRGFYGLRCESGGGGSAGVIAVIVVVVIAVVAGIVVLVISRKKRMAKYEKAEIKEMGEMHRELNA
Kind of test: flow cytometry on HEK293 cells expressing the DLL3 subdomain construct, PE anti-human secondary, control: secondary antibody only. An outline of the steps:
as §1

T6 sequence (P01070 25-205): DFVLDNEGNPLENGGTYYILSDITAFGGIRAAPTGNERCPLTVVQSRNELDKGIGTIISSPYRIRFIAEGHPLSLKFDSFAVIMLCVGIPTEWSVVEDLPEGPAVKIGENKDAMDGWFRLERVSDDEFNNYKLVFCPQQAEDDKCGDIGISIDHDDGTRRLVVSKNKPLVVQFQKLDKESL

B1: DLL3#5/CD3#1 (bispecific antibody, human IgG1, kappa, lambda, L234A L235A)
chain 1: not shown
chain 2: EAVVTQEPSLTVSPGGTVTLTCRSSTGAVTTSNYANWVQEKPGQLPRGLIGGTNKRAPWVPARFSGSLLGGKAALTLSGAQPEDEAEYFCALWYSNLWVFGGGTKLTVLGQPKAAPSVTLFPPSSEELQANKATLVCLISDFYPGAVKVAWKADGSPVNTGVETTTPSKQSNNKYAASSYLSLTPEQWKSHRSYSCQVTHEGSTVEKTVAPAECSGGGGSEGKSSGSGSESKSTEGKSSGSGSESKSTGGGGSEVQLVESGGGLVQPGGSLKLSCAASGFTFNTYAMNWVRQAPGKGLEWVARIRSKYNNYATYYADSVKDRFTISRDDSKNTAYLQMNNLKTEDTAVYYCVRHGNFGNSYVSWFAYWGQGTLVTVSAASTKGPSVFPLAPSSKSTSGGTAALGCLVKDYFPEPVTVSWNSGALTSGVHTFPAVLQSSGLYSLSSVVTVPSSSLGTQTYICNVNHKPSNTKVDKRVEPKSCDKTHTCPPCPAPEAAGGPSVFLFPPKPKDTLMISRTPEVTCVVVDVSHEDPEVKFNWYVDGVEVHNAKTKPREEQYNSTYRVVSVLTVLHQDWLNGKEYKCKVSNKALPAPIEKTISKAKGQPREPQVYTLPPSREEMTKNQVSLSCAVKGFYPSDIAVEWESNGQPENNYKTTPPVLDSDGSFFLVSKLTVDKSRWQQGNVFSCSVMHEALHNRFTQKSLSLSPG
notes: Heterodimer of one DLL3 chain and one CD3 chain (scFab-Fc, knob-in-hole)
For B1, the binding result (with EGF2+3; in the test with EGF5+6; with EGF3+4; in the test with EGF4+5; in test [1]) was “no binding (tested: 1.6 nM)” each time. Also, the “Non-specific binding (RU)” value in test [2] turned out to be 0 RU.

B2: DLL3#6/CD3#1 (bispecific antibody, human IgG1, kappa, lambda, L234A L235A)
chain 1: DIQLTQSPSFLSTSVGDRVTITCRASQDISNYFAWYQQKPGKAPKLLIYAASTLQSGVPSRFSGGGSGTEFTLTISSLQPEDFATYYCQQLNSYPYTFGQGTKLEIKRTVAAPSVFIFPPSDEQLKSGTASVVCLLNNFYPREAKVQWKVDNALQSGNSQESVTEQDSKDSTYSLSSTLTLSKADYEKHKVYACEVTHQGLSSPVTKSFNRGECGGGGSEGKSSGSGSESKSTEGKSSGSGSESKSTGGGGSQVQLQESGPGLVKPSETLSLTCTVSGGSISSYFWSWIRQPAGKGLEWIGRIYTSGSTNYNPSLNSRLTMSVDTSKNQFSLKLSSVTAADTAVYYCARRGDWGGFDIWGQGTVVTVSSASTKGPSVFPLAPSSKSTSGGTAALGCLVKDYFPEPVTVSWNSGALTSGVHTFPAVLQSSGLYSLSSVVTVPSSSLGTQTYICNVNHKPSNTKVDKRVEPKSCDKTHTCPPCPAPEAAGGPSVFLFPPKPKDTLMISRTPEVTCVVVDVSHEDPEVKFNWYVDGVEVHNAKTKPREEQYNSTYRVVSVLTVLHQDWLNGKEYKCKVSNKALPAPIEKTISKAKGQPREPQVYTLPPSREEMTKNQVSLWCLVKGFYPSDIAVEWESNGQPENNYKTTPPVLDSDGSFFLYSKLTVDKSRWQQGNVFSCSVMHEALHNHYTQKSLSLSPG
chain 2: B1 chain 2
notes: as for B1
On to B2, for which the binding result (with EGF2+3; with EGF5+6; with EGF1+2; with EGF3+4; in the test with EGF4+5; in test [1]) was “no binding (tested: 1.6 nM)” in each case. In test [2], the “Non-specific binding (RU)” value came out at 0 RU.

B3: DLL3#4/CD3#1 (bispecific antibody, human IgG1, kappa, lambda, L234A L235A)
chain 1: not shown
chain 2: B1 chain 2
notes: as for B1
As for B3, the binding result (with EGF2+3; with EGF5+6; with EGF1+2; in test [1]) was “no binding (tested: 1.6 nM)” each time. For the same molecule, the “Non-specific binding (RU)” value in test [2] stood at 37 RU.

B4: DLL3#18/CD3#1 (bispecific antibody, human IgG1, kappa, lambda, L234A L235A)
chain 1: DIQMTQSPASLAASVGETVTITCRASENIYYSLAWYQQKQGKSPQLLIYNANSLEDGVPSRFSGSGSGTQYSMKINNMQPEDTATYFCKQAYDVPLTFGAGTKLELKRTVAAPSVFIFPPSDEQLKSGTASVVCLLNNFYPREAKVQWKVDNALQSGNSQESVTEQDSKDSTYSLSSTLTLSKADYEKHKVYACEVTHQGLSSPVTKSFNRGECGGGGSEGKSSGSGSESKSTEGKSSGSGSESKSTGGGGSQVQLQQSGPDLVKPGASVKMSCEASGYTFTAYFIHWVKQKPGQGLEWIGYIDPFNDDTNYNVKFKGKATLTSDTSSSIAYMELSSLTSEDSSFYYCARGTSATLDYWGHGTTLTVSSASTKGPSVFPLAPSSKSTSGGTAALGCLVKDYFPEPVTVSWNSGALTSGVHTFPAVLQSSGLYSLSSVVTVPSSSLGTQTYICNVNHKPSNTKVDKRVEPKSCDKTHTCPPCPAPEAAGGPSVFLFPPKPKDTLMISRTPEVTCVVVDVSHEDPEVKFNWYVDGVEVHNAKTKPREEQYNSTYRVVSVLTVLHQDWLNGKEYKCKVSNKALPAPIEKTISKAKGQPREPQVYTLPPSREEMTKNQVSLWCLVKGFYPSDIAVEWESNGQPENNYKTTPPVLDSDGSFFLYSKLTVDKSRWQQGNVFSCSVMHEALHNHYTQKSLSLSPG
chain 2: B1 chain 2
notes: as for B1
For B4, the binding result (in the test with EGF2+3; with EGF5+6; with EGF1+2; with EGF3+4; with EGF4+5; in test [1]) was “no binding (tested: 1.6 nM)” throughout. The “Non-specific binding (RU)” value in test [2] stood at 81 RU.

B5: DLL3#17/CD3#1 (bispecific antibody, human IgG1, kappa, lambda, L234A L235A)
chain 1: DIQMTQSPASLAASVGETVTITCRASENIYYSLAWYQQKQGKSPQLLIYNTNSLEDGVPSRFSGSGSGTQYSMKINSMQPEDTATYFCKQAYDFPLTFGAGTKLELKRTVAAPSVFIFPPSDEQLKSGTASVVCLLNNFYPREAKVQWKVDNALQSGNSQESVTEQDSKDSTYSLSSTLTLSKADYEKHKVYACEVTHQGLSSPVTKSFNRGECGGGGSEGKSSGSGSESKSTEGKSSGSGSESKSTGGGGSQIQLQQSGPEVVKPGASVKISCKASGYTFISYYIHWVKQRPGQGLEWIGWIYPGDGSTNNNEKFKGKTTLTADKSSSTAYMLLSSLTSEDSAVYFCARGEGNAMDDWGQGTSVTVSSASTKGPSVFPLAPSSKSTSGGTAALGCLVKDYFPEPVTVSWNSGALTSGVHTFPAVLQSSGLYSLSSVVTVPSSSLGTQTYICNVNHKPSNTKVDKRVEPKSCDKTHTCPPCPAPEAAGGPSVFLFPPKPKDTLMISRTPEVTCVVVDVSHEDPEVKFNWYVDGVEVHNAKTKPREEQYNSTYRVVSVLTVLHQDWLNGKEYKCKVSNKALPAPIEKTISKAKGQPREPQVYTLPPSREEMTKNQVSLWCLVKGFYPSDIAVEWESNGQPENNYKTTPPVLDSDGSFFLYSKLTVDKSRWQQGNVFSCSVMHEALHNHYTQKSLSLSPG
chain 2: B1 chain 2
notes: as for B1
Take B5: the binding result (in the test with EGF2+3; in the test with EGF5+6; in the test with EGF1+2; in the test with EGF3+4; with EGF4+5; in test [1]) was “no binding (tested: 1.6 nM)” throughout. Moreover, in test [2], the “Non-specific binding (RU)” value came to 8 RU.
